Results on 1 substance are retold here after PMC5935693.

In the assay the target is XPO1 (human) (human) (UniProt O14980). Put plainly: other fluorescence titration; competition differential bleaching: MBP-NES competes with the probe FITC-NESPKI for XPO1, in the presence of excess RanGTP (GSP1 179ter, Q71L); analysed in PALMIST.
Chain of UniProt O14980 (O14980 whole entry): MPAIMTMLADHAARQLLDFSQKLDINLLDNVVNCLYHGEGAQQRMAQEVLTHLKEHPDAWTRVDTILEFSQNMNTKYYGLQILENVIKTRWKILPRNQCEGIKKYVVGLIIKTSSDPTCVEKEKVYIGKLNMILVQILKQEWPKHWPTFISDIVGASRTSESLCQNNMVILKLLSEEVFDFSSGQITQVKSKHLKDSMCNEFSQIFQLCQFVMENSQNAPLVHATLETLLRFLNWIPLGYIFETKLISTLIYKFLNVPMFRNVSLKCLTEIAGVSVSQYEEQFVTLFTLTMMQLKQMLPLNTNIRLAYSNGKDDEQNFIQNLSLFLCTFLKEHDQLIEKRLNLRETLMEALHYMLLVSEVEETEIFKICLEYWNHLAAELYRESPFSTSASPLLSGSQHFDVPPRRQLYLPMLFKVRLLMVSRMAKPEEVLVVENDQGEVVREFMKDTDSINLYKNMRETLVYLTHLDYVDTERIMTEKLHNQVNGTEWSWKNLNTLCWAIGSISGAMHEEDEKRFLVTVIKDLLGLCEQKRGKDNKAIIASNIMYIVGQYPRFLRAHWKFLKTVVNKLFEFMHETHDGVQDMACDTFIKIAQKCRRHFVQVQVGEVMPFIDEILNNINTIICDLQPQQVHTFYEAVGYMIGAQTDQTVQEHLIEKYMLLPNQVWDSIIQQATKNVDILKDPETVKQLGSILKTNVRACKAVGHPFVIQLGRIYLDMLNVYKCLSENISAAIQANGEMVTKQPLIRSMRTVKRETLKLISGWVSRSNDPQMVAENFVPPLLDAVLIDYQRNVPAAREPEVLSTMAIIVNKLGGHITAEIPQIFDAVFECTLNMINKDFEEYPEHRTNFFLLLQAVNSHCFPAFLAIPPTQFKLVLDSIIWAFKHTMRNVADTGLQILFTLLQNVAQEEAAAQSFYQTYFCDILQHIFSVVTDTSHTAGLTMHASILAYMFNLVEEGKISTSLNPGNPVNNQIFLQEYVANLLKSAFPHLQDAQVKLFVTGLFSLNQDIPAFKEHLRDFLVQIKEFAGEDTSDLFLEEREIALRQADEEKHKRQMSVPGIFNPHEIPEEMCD

“MBP-NESTDP (maltose binding protein fused to the putative NES peptide of TDP-43, residues 236-253)”: the Kd was 13 µM.

The term Kd denotes the free concentration of one partner at which half of the binding sites on the other are occupied at equilibrium, for simple one-to-one binding.
